{"source": "patent US20040072240A1", "molecular_target": "HLA A2.1 molecule (human)", "test": "T2 cells, flow cytometry; P1Y variant against its natural peptide", "data": [{"substance": "P1Y variant of gp100 209 (peptide)", "values": [{"measurement": "DC50 Y1-DC50 WT", "value": 2, "unit": "h"}, {"measurement": "RA WT/RA Y1", "value": 1.7}]}]}
